Experimental data as given in patent US20250171562A1 (ALK ABELL, published 2025).

Each binder was assayed against T1, recombinant human IgE (human, UniProt P01854-1 1-428) (assay: IgE-FcεRIα displacement ELISA).
T1 construct: made in-house (ALK); preloaded on immobilised FcεRIα in the displacement ELISA
Procedure, shortened: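 sdAbs at pM–μM were incubated 1 h on preformed complexes of 13 ng/ml recombinant human IgE with avi-tag-biotinylated human FcεRIα captured on streptavidin.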

T1 sequence (P01854 other isoform, or with tags, fused parts or gaps): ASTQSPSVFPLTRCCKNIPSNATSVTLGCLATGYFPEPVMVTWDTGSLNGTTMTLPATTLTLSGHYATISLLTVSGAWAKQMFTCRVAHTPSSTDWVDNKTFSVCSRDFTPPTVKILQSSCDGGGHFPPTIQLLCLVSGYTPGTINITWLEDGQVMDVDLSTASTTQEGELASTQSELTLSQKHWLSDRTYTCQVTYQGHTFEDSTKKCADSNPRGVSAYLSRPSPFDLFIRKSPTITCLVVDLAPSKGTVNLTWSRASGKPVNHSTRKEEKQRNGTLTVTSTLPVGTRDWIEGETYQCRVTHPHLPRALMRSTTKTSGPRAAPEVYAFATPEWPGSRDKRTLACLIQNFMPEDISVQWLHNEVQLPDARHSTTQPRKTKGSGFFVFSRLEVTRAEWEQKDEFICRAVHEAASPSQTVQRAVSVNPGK

EC50 [nM] | Max effect [%] | Binder
3 | > 95 | CIgG4B1A2(G4S)1 (Fc fusion) chain 1: GPPCPPCPAPEFLGGPSVFLFPPKPKDTLMISRTPEVTCVVVDVSQEDPEVQFNWYVDGVEVHNAKTKPREEQFNSTYRVVSVLTVLHQDWLNGKEYKCKVSNKGLPSSIEKTISKAKGQPREPQVYTLPPCQEEMTKNQVSLWCLVKGFYPSDIAVEWESNGQPENNYKTTPPVLDSDGSFFLYSRLTVDKSRWQEGNVFSCSVMHEALHNHYTQKSLSLSLGKGGGGSQVQLQESGGGLVQTGGSLRLSCAVHGRTFSNTGMGWFRQAPGNERQFVAIISPSGTSTYYADSVKGRFTISRDPAKNTVYLQMNSLKMDDTAVYYCAASYGSNWSTLRHQRRNEYDAWGQGTQVAVS chain 2: GPPCPPCPAPEFLGGPSVFLFPPKPKDTLMISRTPEVTCVVVDVSQEDPEVQFNWYVDGVEVHNAKTKPREEQFNSTYRVVSVLTVLHQDWLNGKEYKCKVSNKGLPSSIEKTISKAKGQPREPQVCTLPPSQEEMTKNQVSLSCAVKGFYPSDIAVEWESNGQPENNYKTTPPVLDSDGSFFLVSRLTVDKSRWQEGNVFSCSVMHEALHNHYTQKSLSLSLGKGGGGSEVQLLESGGGLVQPGGSLRLSCAASGFRFGNYDMAWVRQAPGKRYEWVSSIDTGGDITHYADSVKGRFTISRDNAKNTLYLQMNSLRPEDTAEYWCATDEEYALGPNEFDYYGQGTLVTVS
145 | ~70 | CIgE4A1A1(GS)2 (Fc fusion, also called CIgG4A1A1(G4S)2) chain 1: GPPCPPCPAPEFLGGPSVFLFPPKPKDTLMISRTPEVTCVVVDVSQEDPEVQFNWYVDGVEVHNAKTKPREEQFNSTYRVVSVLTVLHQDWLNGKEYKCKVSNKGLPSSIEKTISKAKGQPREPQVYTLPPCQEEMTKNQVSLWCLVKGFYPSDIAVEWESNGQPENNYKTTPPVLDSDGSFFLYSRLTVDKSRWQEGNVFSCSVMHEALHNHYTQKSLSLSLGKGGGGSGGGGSEVQLLESGGGLVQPGGSLRLSCAASGFTFGNYDMAWVRQAPGKRPEWVSSIDTGGDITHYADSVKGRFTISRDNAKNTLYLQMNSLRPEDTAVYWCATDEEYALGPNEFDYYGQGTLVTVSS chain 2: GPPCPPCPAPEFLGGPSVFLFPPKPKDTLMISRTPEVTCVVVDVSQEDPEVQFNWYVDGVEVHNAKTKPREEQFNSTYRVVSVLTVLHQDWLNGKEYKCKVSNKGLPSSIEKTISKAKGQPREPQVCTLPPSQEEMTKNQVSLSCAVKGFYPSDIAVEWESNGQPENNYKTTPPVLDSDGSFFLVSRLTVDKSRWQEGNVFSCSVMHEALHNHYTQKSLSLSLGKGGGGSGGGGSEVQLLESGGGLVQPGGSLRLSCAASGFTFGNYDMAWVRQAPGKRPEWVSSIDTGGDITHYADSVKGRFTISRDNAKNTLYLQMNSLRPEDTAVYWCATDEEYALGPNEFDYYGQGTLVTVSS
 | > 95 | NIgG4B1A2(G4S)2 (Fc fusion) chain 1: QVQLQESGGGLVQTGGSLRLSCAVHGRTFSNTGMGWFRQAPGNERQFVAIISPSGTSTYYADSVKGRFTISRDPAKNTVYLQMNSLKMDDTAVYYCAASYGSNWSTLRHQRRNEYDAWGQGTQVAVSGGGGSGGGGSGPPCPPCPAPEFLGGPSVFLFPPKPKDTLMISRTPEVTCVVVDVSQEDPEVQFNWYVDGVEVHNAKTKPREEQFNSTYRVVSVLTVLHQDWLNGKEYKCKVSNKGLPSSIEKTISKAKGQPREPQVYTLPPCQEEMTKNQVSLWCLVKGFYPSDIAVEWESNGQPENNYKTTPPVLDSDGSFFLYSRLTVDKSRWQEGNVFSCSVMHEALHNHYTQKSLSLSLGK chain 2: EVQLLESGGGLVQPGGSLRLSCAASGFRFGNYDMAWVRQAPGKRYEWVSSIDTGGDITHYADSVKGRFTISRDNAKNTLYLQMNSLRPEDTAEYWCATDEEYALGPNEFDYYGQGTLVTVSGGGGSGGGGSGPPCPPCPAPEFLGGPSVFLFPPKPKDTLMISRTPEVTCVVVDVSQEDPEVQFNWYVDGVEVHNAKTKPREEQFNSTYRVVSVLTVLHQDWLNGKEYKCKVSNKGLPSSIEKTISKAKGQPREPQVCTLPPSQEEMTKNQVSLSCAVKGFYPSDIAVEWESNGQPENNYKTTPPVLDSDGSFFLVSRLTVDKSRWQEGNVFSCSVMHEALHNHYTQKSLSLSLGK
 | > 95 | NIgG4B1A2(G4S)3 (Fc fusion) chain 1: QVQLQESGGGLVQTGGSLRLSCAVHGRTFSNTGMGWFRQAPGNERQFVAIISPSGTSTYYADSVKGRFTISRDPAKNTVYLQMNSLKMDDTAVYYCAASYGSNWSTLRHQRRNEYDAWGQGTQVAVSGGGGSGGGGSGGGGSGPPCPPCPAPEFLGGPSVFLFPPKPKDTLMISRTPEVTCVVVDVSQEDPEVQFNWYVDGVEVHNAKTKPREEQFNSTYRVVSVLTVLHQDWLNGKEYKCKVSNKGLPSSIEKTISKAKGQPREPQVYTLPPCQEEMTKNQVSLWCLVKGFYPSDIAVEWESNGQPENNYKTTPPVLDSDGSFFLYSRLTVDKSRWQEGNVFSCSVMHEALHNHYTQKSLSLSLGK chain 2: EVQLLESGGGLVQPGGSLRLSCAASGFRFGNYDMAWVRQAPGKRYEWVSSIDTGGDITHYADSVKGRFTISRDNAKNTLYLQMNSLRPEDTAEYWCATDEEYALGPNEFDYYGQGTLVTVSGGGGSGGGGSGGGGSGPPCPPCPAPEFLGGPSVFLFPPKPKDTLMISRTPEVTCVVVDVSQEDPEVQFNWYVDGVEVHNAKTKPREEQFNSTYRVVSVLTVLHQDWLNGKEYKCKVSNKGLPSSIEKTISKAKGQPREPQVCTLPPSQEEMTKNQVSLSCAVKGFYPSDIAVEWESNGQPENNYKTTPPVLDSDGSFFLVSRLTVDKSRWQEGNVFSCSVMHEALHNHYTQKSLSLSLGK

Second part, the binder before the results:

Binder | EC50 [nM] | Max effect [%]
CIgE4A1A1(GS3) (Fc fusion, also called CIgG4A1A1(G4S)3) chain 1: GPPCPPCPAPEFLGGPSVFLFPPKPKDTLMISRTPEVTCVVVDVSQEDPEVQFNWYVDGVEVHNAKTKPREEQFNSTYRVVSVLTVLHQDWLNGKEYKCKVSNKGLPSSIEKTISKAKGQPREPQVYTLPPCQEEMTKNQVSLWCLVKGFYPSDIAVEWESNGQPENNYKTTPPVLDSDGSFFLYSRLTVDKSRWQEGNVFSCSVMHEALHNHYTQKSLSLSLGKGGGGSGGGGSGGGGSEVQLLESGGGLVQPGGSLRLSCAASGFTFGNYDMAWVRQAPGKRPEWVSSIDTGGDITHYADSVKGRFTISRDNAKNTLYLQMNSLRPEDTAVYWCATDEEYALGPNEFDYYGQGTLVTVSS chain 2: GPPCPPCPAPEFLGGPSVFLFPPKPKDTLMISRTPEVTCVVVDVSQEDPEVQFNWYVDGVEVHNAKTKPREEQFNSTYRVVSVLTVLHQDWLNGKEYKCKVSNKGLPSSIEKTISKAKGQPREPQVCTLPPSQEEMTKNQVSLSCAVKGFYPSDIAVEWESNGQPENNYKTTPPVLDSDGSFFLVSRLTVDKSRWQEGNVFSCSVMHEALHNHYTQKSLSLSLGKGGGGSGGGGSGGGGSEVQLLESGGGLVQPGGSLRLSCAASGFTFGNYDMAWVRQAPGKRPEWVSSIDTGGDITHYADSVKGRFTISRDNAKNTLYLQMNSLRPEDTAVYWCATDEEYALGPNEFDYYGQGTLVTVSS | 36 | ~85
NIgG4B1A2(RS) (Fc fusion) chain 1: QVQLQESGGGLVQTGGSLRLSCAVHGRTFSNTGMGWFRQAPGNERQFVAIISPSGTSTYYADSVKGRFTISRDPAKNTVYLQMNSLKMDDTAVYYCAASYGSNWSTLRHQRRNEYDAWGQGTQVAVSRSGPPCPPCPAPEFLGGPSVFLFPPKPKDTLMISRTPEVTCVVVDVSQEDPEVQFNWYVDGVEVHNAKTKPREEQFNSTYRVVSVLTVLHQDWLNGKEYKCKVSNKGLPSSIEKTISKAKGQPREPQVYTLPPCQEEMTKNQVSLWCLVKGFYPSDIAVEWESNGQPENNYKTTPPVLDSDGSFFLYSRLTVDKSRWQEGNVFSCSVMHEALHNHYTQKSLSLSLGK chain 2: EVQLLESGGGLVQPGGSLRLSCAASGFRFGNYDMAWVRQAPGKRYEWVSSIDTGGDITHYADSVKGRFTISRDNAKNTLYLQMNSLRPEDTAEYWCATDEEYALGPNEFDYYGQGTLVTVSRSGPPCPPCPAPEFLGGPSVFLFPPKPKDTLMISRTPEVTCVVVDVSQEDPEVQFNWYVDGVEVHNAKTKPREEQFNSTYRVVSVLTVLHQDWLNGKEYKCKVSNKGLPSSIEKTISKAKGQPREPQVCTLPPSQEEMTKNQVSLSCAVKGFYPSDIAVEWESNGQPENNYKTTPPVLDSDGSFFLVSRLTVDKSRWQEGNVFSCSVMHEALHNHYTQKSLSLSLGK |  | > 95
NIgG4B1A2(G4S)1 (Fc fusion) chain 1: QVQLQESGGGLVQTGGSLRLSCAVHGRTFSNTGMGWFRQAPGNERQFVAIISPSGTSTYYADSVKGRFTISRDPAKNTVYLQMNSLKMDDTAVYYCAASYGSNWSTLRHQRRNEYDAWGQGTQVAVSGGGGSGPPCPPCPAPEFLGGPSVFLFPPKPKDTLMISRTPEVTCVVVDVSQEDPEVQFNWYVDGVEVHNAKTKPREEQFNSTYRVVSVLTVLHQDWLNGKEYKCKVSNKGLPSSIEKTISKAKGQPREPQVYTLPPCQEEMTKNQVSLWCLVKGFYPSDIAVEWESNGQPENNYKTTPPVLDSDGSFFLYSRLTVDKSRWQEGNVFSCSVMHEALHNHYTQKSLSLSLGK chain 2: EVQLLESGGGLVQPGGSLRLSCAASGFRFGNYDMAWVRQAPGKRYEWVSSIDTGGDITHYADSVKGRFTISRDNAKNTLYLQMNSLRPEDTAEYWCATDEEYALGPNEFDYYGQGTLVTVSGGGGSGPPCPPCPAPEFLGGPSVFLFPPKPKDTLMISRTPEVTCVVVDVSQEDPEVQFNWYVDGVEVHNAKTKPREEQFNSTYRVVSVLTVLHQDWLNGKEYKCKVSNKGLPSSIEKTISKAKGQPREPQVCTLPPSQEEMTKNQVSLSCAVKGFYPSDIAVEWESNGQPENNYKTTPPVLDSDGSFFLVSRLTVDKSRWQEGNVFSCSVMHEALHNHYTQKSLSLSLGK |  | > 95
CIgG4B1A2(RS) (Fc fusion) chain 1: GPPCPPCPAPEFLGGPSVFLFPPKPKDTLMISRTPEVTCVVVDVSQEDPEVQFNWYVDGVEVHNAKTKPREEQFNSTYRVVSVLTVLHQDWLNGKEYKCKVSNKGLPSSIEKTISKAKGQPREPQVYTLPPCQEEMTKNQVSLWCLVKGFYPSDIAVEWESNGQPENNYKTTPPVLDSDGSFFLYSRLTVDKSRWQEGNVFSCSVMHEALHNHYTQKSLSLSLGKRSQVQLQESGGGLVQTGGSLRLSCAVHGRTFSNTGMGWFRQAPGNERQFVAIISPSGTSTYYADSVKGRFTISRDPAKNTVYLQMNSLKMDDTAVYYCAASYGSNWSTLRHQRRNEYDAWGQGTQVAVS chain 2: GPPCPPCPAPEFLGGPSVFLFPPKPKDTLMISRTPEVTCVVVDVSQEDPEVQFNWYVDGVEVHNAKTKPREEQFNSTYRVVSVLTVLHQDWLNGKEYKCKVSNKGLPSSIEKTISKAKGQPREPQVCTLPPSQEEMTKNQVSLSCAVKGFYPSDIAVEWESNGQPENNYKTTPPVLDSDGSFFLVSRLTVDKSRWQEGNVFSCSVMHEALHNHYTQKSLSLSLGKRSEVQLLESGGGLVQPGGSLRLSCAASGFRFGNYDMAWVRQAPGKRYEWVSSIDTGGDITHYADSVKGRFTISRDNAKNTLYLQMNSLRPEDTAEYWCATDEEYALGPNEFDYYGQGTLVTVS | 5 | > 95
